Experimental data from patent US20160166666A1, “TUMOR ANTIGEN PEPTIDE” (Sumitomo Dainippon Pharma Co., Ltd., priority 2013, published 2016).

Tests used:
HLA-A*02:01 on T2 cells = molecular target: T1, HLA-A*02:01 on T2 cells (human, UniProt P04439 25-302 at identity 0.94)); assay: MHC class I expression stabilization test on T2 cells as in Example 2, flow cytometry
T1 construct: whole, on cells; Empty MHC class I on the cell surface that is stabilized by an added peptide; the text gives HLA-A*02:01
T1 MHC heavy: not shown

[1] = molecular target: T2, HLA-A*24:02 on T2-A24 cells (human, UniProt P04439-2 25-302 at identity 0.92)); assay: MHC class I expression stabilization test on T2-A24 cells as in Example 2, flow cytometry
T2 construct: whole, on cells; Empty MHC class I on the cell surface that is stabilized by an added peptide; the text gives HLA-A*24:02
T2 MHC heavy: not shown

B1: Peptide represented by SEQ ID No: 11, OR7C1 V126I (117-126) (peptide)
peptide: VMAYDRFVAI
notes: Synthetic peptide, Fmoc method
HLA-A*02:01 on T2 cells
  mean fluorescence intensity (MFI) solvent ratio: 2.2 ratio to solvent
[1]
  mean fluorescence intensity (MFI) solvent ratio: 3.8 ratio to solvent
